Measurements reported in paper PMC6249546.

Molecular target: T1, His-EmrR (Chromobacterium violaceum ATCC 12472) (UniProt Q7P000)
T1 sequence: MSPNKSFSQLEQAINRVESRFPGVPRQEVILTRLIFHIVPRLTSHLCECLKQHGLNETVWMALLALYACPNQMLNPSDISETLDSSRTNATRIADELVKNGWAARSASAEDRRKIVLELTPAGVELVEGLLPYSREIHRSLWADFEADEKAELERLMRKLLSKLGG
Test: EMSA
Details: 32P-labelled PCR probes, 100-300 nM DTT-reduced His-EmrR, interaction buffer as in da Silva Neto 2012 and Previato-Mello 2017 (composition, pH …)

**Q.** How did the binding turn out when “TTGGATCCGAAGGCCAGGCGCTGCATCTGGGCGGCGCCCACCCGAGCGCGCTGGAAAAACTGCTGTTCCCGCGGCTGGAAACCAGCCAGCTGCTGGGCGGCGGCAGCCAGCCGCTGCGGCTGACGCTGAGCTGGCAACAGGGTTGGGCGCAGATCGGCCTGTTCGAATGGACGGTGTGGCTGCTGCTGTCGCTGCTGCTGGGCCTGGGCATAGGCCTGGCCGGCTTCAGCTTCGTGCGCAGCAGCGACAGCTGCAGTAAT (double strand) [CV_0208 coding region]” was run?
**A.** The binding was “binds more weakly”.

**Q.** “TTGGCAGAGCTCCAATGATGCATGTCGGTCCGGACGTGATTAATCTGGTGATAATCACCCGGGTTATTATTCGAGTGAAAAAGCGCGGGCTCAGCCAAGCTTATA (double strand) [emrCAB promoter]” was tested. Which binding did it give?
**A.** The binding was “binds”.

**Q.** “TTGGCACTGCAGCAAATAAGCCTGCCCGTGGCGGCGCCTCCCCCGCCGCCACTCTCCCTCCTTCCCCCGTCTCGCCGGCCCTTCGGCTGCCGCCGTCTACCGGCCGCCAATCTAACCCATTGTCATTTCGCCACACTTTTCGCCAGCATTTCATTAGCAAGGTTATTATTACTTGCAAAATAATACCGCACGTTACTAAAATGGCCGCATGAGTCCAAACAAGAAGCTTATA (double strand) [emrR promoter]” was tested. Which binding did it give?
**A.** Its binding is “binds”.
